Experiments:
[1] = system: beta-catenin; assay: beta-catenin protein accumulation in Xenopus oocytes (immunoblot); type: cell-based; conditions: construct mRNA expressed in Xenopus oocytes
Method: FIG. 2A is an image of an immunoblot of Xenopus cytoplasmic extracts obtained from Xenopus embryos in which beta-catenin was expressed, using an antibody which binds specifically with beta-catenin (described in McCrea et al., 1993, J. Cell. Biol. 123:477-84). The embryo corresponding to lane 2 was incubated in the presence of 20 millimolar LiCI. Extracts corresponding to lanes 3-5, 7, and 8 were obtained from embryos in which full-length (lane 8) Xaxin or the C-term (lane 3), GID1 (“GID”; lanes 4 and 7), or N-term (lane 5) fragments of Xaxin were expressed.
Although endogenous GSK-3 beta is not present at sufficient levels to detect using the tau assay, inhibition of GSK-3 beta is known to cause stabilization of cytoplasmic beta-catenin (Cadigan et al., 1997, Genes Dev. 11:3286-3305; Miller et al., 1996, Genes Develop. 10:2527-2539), and this serves as a widely used assay for downstream activation of wnt signaling. Inhibition of endogenous GSK-3 beta activity also causes stabilization of beta-catenin in Xenopus embryos and oocytes (Hedgepeth et al., 1997, Develop. Biol. 185:82-91; Yost et al., 1998, Cell 93:1031-1041; Yost et al., 1996, Genes Develop. 10:1443-1454). For this reason, levels of beta-catenin protein were assessed in Xenopus oocytes which had been injected either with full length Xaxin mRNA or with mRNA encoding one of the amino-terminal, GID, or carboxyl-terminal domains of Xaxin.

[2] = system: LEF-1 dependent transcription (wnt signaling); assay: LEF-luciferase reporter of wnt signaling in 293T cells; type: cell-based; conditions: 293T cells
Method: LEF-1 (also designated tcf) is a DNA-binding protein that also binds with beta-catenin. The beta-catenin/LEF-1 complex is known to activate transcription of wnt target genes. A genetic construct was made which comprised this LEF-1-binding promoter operably linked with a luciferase gene, for use as a reporter of wnt signaling.
Single plasmids encoding individual GID fragments were transfected into 293T cells, together with the LEF-luciferase reporter, and luciferase activity was measured after 24 hours. GID fragments induced up to 100- to 250-fold activation of LEF-luciferase (normalized to activity from the mutated LEF-reporter control, which was activated less than 2-fold).

[3] = system: Xenopus embryos; assay: Dorsal axis duplication / dorsalization in Xenopus embryos after mRNA injection; type: in vivo; conditions: 4 cell embryo
[4] = target: T1, FL Xaxin (Xenopus laevis, UniProt Q9YGY0); assay: Yeast two hybrid assay, interaction with FL Xaxin; type: binding; conditions: beta-galactosidase filter assay in S. cerevisiae
T1 construct: expressed in transfected cells; host or cells: Saccharomyces cerevisiae
Text: (§1) FL Xaxin was cloned in frame with the GAL4 DNA binding domain (BD) in plasmid pAS2-1 (Clontech) to yield BD plasmid. Expression of BD plasmid yielded a Xaxin-GAL4 fusion protein. FL Xaxin, deltaDIX Xaxin, and a fragment (designated “AID”) encoding amino acid residues 489-777 of Xaxin were cloned in frame with the GAL4 transcriptional activation domain (AD) in the vector pACT2 to yield AD plasmids. Yeast were transformed with BD and AD plasmids using previously described protocols (Clontech, Palo Alto, Calif.). Transformed colonies were selected and assayed for beta-galactosidase activity in order to detect interacting proteins. In addition, three Xenopus axin partial length cDNAs (designated Y2H 2, Y2H 6, Y2H 7; all in plasmid pACT2) isolated from a previous yeast two hybrid screen (Hedgepeth et al., 1999, Mech. Develop. 80:147-151) were analyzed. Purification of GID
(§2) Using the yeast two hybrid assay, the ability of axin to bind with itself, with other members of the wnt pathway, or with the G(alpha)q subunit of heterotrimeric G-proteins, was investigated. […]
(§3) Saccharomyces cerevisiae cells were transformed with the bait vector and with one of the target vectors. Interaction was assessed using a filter assay to detect beta-galactosidase activity, as described (Fields et al., 1989, Nature 340:245-247; Harper et al., 1993, Cell 75:805-816). […]

[5] = system: GSK-3 beta; assay: Yeast two hybrid assay, interaction with GSK-3 beta; type: binding; conditions: beta-galactosidase filter assay in S. cerevisiae
Text: as §1, §2, §3

[6] = system: carboxyl-terminal fragment of Xenopus frizzled 3; assay: Yeast two hybrid assay, interaction with frizzled 3 fragment; type: binding; conditions: beta-galactosidase filter assay in S. cerevisiae
Text: as §1, §2, §3

[7] = target: T2, carboxyl-terminal fragment of Xenopus frizzled 7 (Xenopus laevis, UniProt Q9PUK8); assay: Yeast two hybrid assay, interaction with frizzled 7 fragment; type: binding; conditions: beta-galactosidase filter assay in S. cerevisiae
T2 sequence (Q9PUK8 525-549 limits assumed): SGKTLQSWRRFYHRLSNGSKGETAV
Text: as §1, §2, §3

[8] = target: T3, G(alpha)q subunit of heterotrimeric G-proteins (Homo sapiens, UniProt P50148); assay: Yeast two hybrid assay, interaction with G(alpha)q; type: binding; conditions: beta-galactosidase filter assay in S. cerevisiae
T3 sequence (P50148 1-359): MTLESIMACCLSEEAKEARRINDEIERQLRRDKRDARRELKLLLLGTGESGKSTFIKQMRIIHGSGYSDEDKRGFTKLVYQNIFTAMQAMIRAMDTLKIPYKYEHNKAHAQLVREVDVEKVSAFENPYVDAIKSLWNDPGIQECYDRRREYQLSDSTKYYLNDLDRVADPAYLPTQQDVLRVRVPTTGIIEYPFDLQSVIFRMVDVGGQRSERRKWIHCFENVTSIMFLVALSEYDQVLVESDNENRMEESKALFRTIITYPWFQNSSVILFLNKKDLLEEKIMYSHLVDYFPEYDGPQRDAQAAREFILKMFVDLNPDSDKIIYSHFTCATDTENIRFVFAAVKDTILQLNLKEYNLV
Text: as §1, §2, §3

B1: full length Xaxin: full length Xenopus axin, amino acid residues 1-842 (SEQ ID NO: 8) (protein, listed as Xenopus laevis)
chain: MSVKGKGFPLDLGGSFTEDAPRPPVPGEEGELITTDQRPFSHTYYSLKNDGIKNETSTATPRRPDLDLGYEPEGSASPTPPYLKWAESLHSLLDDQDGIHLFRTFLQQENCADLLDFWFACSGFRKLEPNDSKVEKRLKLAKAIYKKYVLDSNGIVSRQIKPATKSFIKDCVLRQQIDPAMFDQAQMEIQSMMEDNTYPVFLKSDIYLEYTTIGGESPKNYSDQSSGSGTGKGPSGYLPTLNEDEEWRCDQGGEHERERECIPSSLFSQKLALDSSSHCAGSNRRLSDGREFRPGTWREPVNPYYVNTGYAGAPVTSANDSEQQSMSSDADTMSLTDSSVDGIPPYRLRKHYRREMQESANANGRGPLPHIPRTYHMPKDIHVDPEKFAAELISRLEGVLRDREAEQKLEERLKRVRAEEEGDDGDVSSGPSVISHKLPSGPPMHHFNSRYSETGCVGMQIRDAHEENPESILDEHVQRVMKTPGCQSPGTGRHSPKSRSPDGHLSKTLPGSLGTMQTGHGKHSSKSTAKVDSGNLHHHKHVYHHVHHHGGVKPKEQIDGESTQRVQTNFPWNVESHNYATKSRNYAESMGMAPNPMDSLAYSGKVSMLSKRNAKKADLGKSESASHEMPVVPEDSERHQKILQWIMEGEKEIIRHKKSNHSSSSAKKQPPTELARPLSIERPGAVHPWVSAQLRNVVQPSHPFIQDPTMPPNPAPNPLTQLVSKPGARLEEEEKKAAKMPQKQRLKPQKKNVSAPSQPCDNIVVAYYFCGEPIPYRTMVKGRVVTLGQFKELLTKKGNYRYYFKKVSDEFDCGVVFEEVREDDMILPIYEEKIIGQVEKID
With B1 the accumulation of beta-catenin [1] was “not observed”, the “activation of wnt signaling (LEF-1-binding promoter luciferase reporter)” value [2] was “not” and the “effect on axial development” value ([3]; mRNA injected or expressed dorsally) was “caused ventralization”. For the same molecule, the “secondary / ectopic axis formation” value ([3]; mRNA injected or expressed ventrally, scored at tadpole stage) was “induced formation of ectopic cement glands”, the “interaction with FL Xaxin (self-interaction)” value [4] was “interacted strongly” and the “interaction with GSK-3 beta” value [5] was “interacted strongly”. The “interaction with carboxyl-terminal fragment of Xenopus frizzled 3” value [6] was “did not interact”, the “interaction with carboxyl-terminal fragment of Xenopus frizzled 7” value [7] was “did not interact” and the “interaction with G(alpha)q” value [8] was “did not interact”.
